# Measured values as given in patent US5834244, “Factor VIIa inhibitors from Kunitz domain proteins” (Genentech, Inc., dated 1998).
# Where a chain is given by its changes, count along the chain named. No end group written: not given here.
# T1: human Factor XIIa (human, UniProt P00748)
# T1 sequence 1: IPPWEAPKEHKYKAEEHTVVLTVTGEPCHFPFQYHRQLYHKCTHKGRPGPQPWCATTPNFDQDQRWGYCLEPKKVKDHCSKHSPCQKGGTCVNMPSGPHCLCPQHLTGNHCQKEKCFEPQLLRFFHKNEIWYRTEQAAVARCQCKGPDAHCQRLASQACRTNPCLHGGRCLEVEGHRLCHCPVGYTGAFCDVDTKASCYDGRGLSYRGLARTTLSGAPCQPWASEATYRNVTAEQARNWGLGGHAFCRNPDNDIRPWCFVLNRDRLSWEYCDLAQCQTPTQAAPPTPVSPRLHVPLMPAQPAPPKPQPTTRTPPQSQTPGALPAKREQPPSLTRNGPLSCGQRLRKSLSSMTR
# T1 sequence 2: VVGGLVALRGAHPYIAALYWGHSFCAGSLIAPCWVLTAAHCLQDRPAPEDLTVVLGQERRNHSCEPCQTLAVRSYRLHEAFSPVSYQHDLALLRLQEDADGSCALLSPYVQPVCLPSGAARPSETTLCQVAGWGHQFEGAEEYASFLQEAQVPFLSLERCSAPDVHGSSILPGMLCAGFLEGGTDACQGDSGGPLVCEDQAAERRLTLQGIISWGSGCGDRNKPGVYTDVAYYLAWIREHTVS
# B1: APPI, Alzheimer's amyloid β-protein precursor inhibitor (other)
# chain: VREVCSEQAETGPCRAMISRWYFDVTEGKCAPFFYGGCGGNRNNFDTEEYCMAVCGSA
# modifications: not fully specified (bridges); ends and bridges not checked
# B2: TF7I-C (designed binder)
# chain: B1 chain with T11P, M17L, S19L, G39Y, M52A
# modifications: ends and bridges not checked; cysteine pairing not given here
# B3: IV-32B (designed binder)
# chain: VREVCSEQAEPGPCKALMKRWYFDVTEGKCAPFYYGGCYGNRNNFDTEEYCAAVCGSA
# B4: IV-49C (designed binder)
# chain: B3 chain with K15R, Y34I
# B5: IV-54C (designed binder)
# chain: B3 chain with K15R, Y34V
# Experiments:
# [1] = molecular target: human Factor Xa (human, UniProt P00742); test: chromogenic enzyme inhibition assay, apparent Ki*
# [2] = molecular target: human thrombin (human, UniProt P00734); test: chromogenic enzyme inhibition assay, apparent Ki*
# [3] = molecular target: human activated protein C (human, UniProt P04070); test: chromogenic enzyme inhibition assay, apparent Ki*
# [4] = molecular target: T1, human Factor XIIa; test: chromogenic enzyme inhibition assay, apparent Ki*
# [5] = molecular target: TF-FVIIa complex in the PT assay (full length TF on 293 cell membranes with the Factor VII/VIIa of normal … (human, UniProt P08709)); test: cell-based or functional assay
# [6] = molecular target: human plasmin (human, UniProt P00747); test: chromogenic enzyme inhibition assay (plasmin 15 nM, S2251), apparent Ki*
# Description: (§1) Aliquots (25 μL) from each well of a microtiter plate containing the serially diluted inhibitors were transferred into new microtiter plates, each containing a different protease (100 μL) in the appropriate buffer. The proteases tested (protease concentration, buffer, substrate) were FVIIa (10 nM, Buffer A, 0.7 mM S2366), FXIa (1.0 nM, Buffer B containing 1 mg/ml BSA, 0.7 mM S2366), plasma kallikrein (3.5 nM, Buffer B, 0.5 mM S2302), and plasmin (15 nM, Buffer B, 1 mM S2251). Buffer A contains 50 mM Tris, pH 7.5, 100 mM NaCl, 10 mM CaCl_2, 0.5% BSA, 60 nM TF_1-243, and 1 mM CHAPS (Sigma). Buffer B contains 50 mM Tris, pH 7.5, 100 mM NaCl, 2 mM CaCl_2 and 0.005% Triton X-100.
# [7] = molecular target: human plasma kallikrein (human, UniProt P03952); test: chromogenic enzyme inhibition assay, apparent Ki* (value in FIG. 4)
# Description: as §1
Binder,binding result [3],binding result [4],"fold prolongation of clotting time, PT assay in normal human plasma [5]",other results
B1,no binding (tested: >10 µM),no binding (tested: >10 µM),1.5 fold prolongation at 40 µM inhibitor,Ki [1]: > 10 µM; binding result [1]: no binding (tested: >10 µM); Ki [2]: > 10 µM; binding result [2]: no binding (tested: >10 µM); Ki [3]: > 10 µM; Ki [4]: > 10 µM
B2,no binding (tested: >10 µM),no binding (tested: >10 µM),–,Ki [6]: 0.04 µM; binding result [7]: binds
B3,–,–,1.4 fold prolongation at 40 µM inhibitor,–
B4,–,–,2.5 fold prolongation at 40 µM inhibitor,–
B5,–,–,2.1 fold prolongation at 40 µM inhibitor,–
